Patent US20200115714A1 (GEORGIA TECH RESEARCH, published 2020)

Key:
[1] = biological target: T1, E. coli fatty acid biosynthesis acyl carrier protein (E. coli AcpP), P0A6A8
T1 chain: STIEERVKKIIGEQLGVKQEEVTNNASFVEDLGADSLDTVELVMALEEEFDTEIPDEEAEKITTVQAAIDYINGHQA

[2] = biological target: T2, 15N-octanoyl-AcpP (Escherichia coli, UniProt P0A6A8 2-78, octanoyl group, 15N-labelled (printed as 15N-octanoyl-AcpP); attachment site not given); experiment: NMR titrations between 15N-octanoyl-AcpP and the AbTEs
T2 construct: Purified, labelled AcpP of the NMR titrations; also called 15N-AcpP; E. coli ACP

B1: AbTE:G17E (protein)
chain: MGKTILILGDSLSAGYEINPEQGWVALLQKRLDQQFPKQHKVINASVSGETTSGALARLPKLLTTYRPNVVVIELGGNDALRGQPPQMIQSNLEKLIQHSQKAKSKVVVFGMKIPPNYGTAYSQAFENNYKVVSQTYQVKLLPFFLDGVAGHKSLMQNDQIHPNAKAQSILLNNAYPYIKGAL
Question: B1 was tested. Which “secreted MCFAs, E. coli (GC/MS)” value [1] did it give?
Answer: ˜21 mg/L and 14 mg/L of secreted MCFAs, respectively

B2: AbTE:G17E/A165E (protein)
chain: MGKTILILGDSLSAGYEINPEQGWVALLQKRLDQQFPKQHKVINASVSGETTSGALARLPKLLTTYRPNVVVIELGGNDALRGQPPQMIQSNLEKLIQHSQKAKSKVVVFGMKIPPNYGTAYSQAFENNYKVVSQTYQVKLLPFFLDGVAGHKSLMQNDQIHPNEKAQSILLNNAYPYIKGAL
Question: Which “secreted MCFAs, E. coli (GC/MS)” value [1] does the source give for B2 here?
Answer: ˜21 mg/L and 14 mg/L of secreted MCFAs, respectively

B3: AbTE:G17R/A165E (protein)
chain: MGKTILILGDSLSAGYRINPEQGWVALLQKRLDQQFPKQHKVINASVSGETTSGALARLPKLLTTYRPNVVVIELGGNDALRGQPPQMIQSNLEKLIQHSQKAKSKVVVFGMKIPPNYGTAYSQAFENNYKVVSQTYQVKLLPFFLDGVAGHKSLMQNDQIHPNEKAQSILLNNAYPYIKGAL
Question: For B3, which “secreted MCFAs, E. coli (GC/MS)” value [1] is on record?
Answer: AbTE:G17R/A165E resulted in ˜57 mg/L of secreted MCFAs

B4: AbTE:G17E/A165R (protein)
chain: MGKTILILGDSLSAGYEINPEQGWVALLQKRLDQQFPKQHKVINASVSGETTSGALARLPKLLTTYRPNVVVIELGGNDALRGQPPQMIQSNLEKLIQHSQKAKSKVVVFGMKIPPNYGTAYSQAFENNYKVVSQTYQVKLLPFFLDGVAGHKSLMQNDQIHPNRKAQSILLNNAYPYIKGAL
Question: For B4, which “secreted MCFAs, E. coli (GC/MS)” value [1] is on record?
Answer: This favorable effect in secreted MCFAs or secreted fatty acids of all chain lengths is not seen in AbTE:G17E/A165R

B5: Acinetobacter baylyi acyl-ACP thioesterase (AbTE) wild type (protein)
chain: MGKTILILGDSLSAGYGINPEQGWVALLQKRLDQQFPKQHKVINASVSGETTSGALARLPKLLTTYRPNVVVIELGGNDALRGQPPQMIQSNLEKLIQHSQKAKSKVVVFGMKIPPNYGTAYSQAFENNYKVVSQTYQVKLLPFFLDGVAGHKSLMQNDQIHPNAKAQSILLNNAYPYIKGAL
Question: B5 was tested. Which “secreted MCFAs, E. coli MG1655, 24 hrs (GC/MS)” value [1] did it give?
Answer: ˜29 mg/L of secreted MCFAs

Question: And the “secreted MCFAs, E. coli, 72 hrs (GC/MS)” value [1]?
Answer: from ˜29 mg/L to ˜79 mg/L

B6: AbTE:G17R (protein)
chain: MGKTILILGDSLSAGYRINPEQGWVALLQKRLDQQFPKQHKVINASVSGETTSGALARLPKLLTTYRPNVVVIELGGNDALRGQPPQMIQSNLEKLIQHSQKAKSKVVVFGMKIPPNYGTAYSQAFENNYKVVSQTYQVKLLPFFLDGVAGHKSLMQNDQIHPNAKAQSILLNNAYPYIKGAL
Question: Which results are given for B6?
Answer: secreted MCFAs, E. coli MG1655, 24 hrs (GC/MS) [1]: ˜76 mg/L of secreted MCFAs; secreted MCFAs, E. coli, 72 hrs (GC/MS) [1]: cultivating E. coli expressing AbTE:G17R for 72 hrs did not result in any changes in MCFA titers

B7: AbTE:G17R/A165R (protein)
chain: MGKTILILGDSLSAGYRINPEQGWVALLQKRLDQQFPKQHKVINASVSGETTSGALARLPKLLTTYRPNVVVIELGGNDALRGQPPQMIQSNLEKLIQHSQKAKSKVVVFGMKIPPNYGTAYSQAFENNYKVVSQTYQVKLLPFFLDGVAGHKSLMQNDQIHPNRKAQSILLNNAYPYIKGAL
Question: For B7, which “secreted MCFA titers against AbTE:G17R” value [1] is on record?
Answer: a 29% increase in secreted MCFA titers when compared to expression of AbTE:G17R

Question: And the “secreted MCFA titers against AbTE:WT” value [1]?
Answer: a more than 3-fold in secreted MCFA titers when compared to AbTE:WT

Question: What about the “secreted MCFAs, E. coli MG1655, 24 hrs (GC/MS)” value [1] of the same binder?
Answer: ˜98 mg/L of secreted MCFAs

Question: What about the “secreted MCFAs, E. coli, 72 hrs (GC/MS)” value [1] of the same binder?
Answer: increased from 98 mg/L to 131 mg/L when extending the cultivation time from 24 hrs to 72 hrs

B8: AbTE:T120R/A121R (protein)
chain: MGKTILILGDSLSAGYGINPEQGWVALLQKRLDQQFPKQHKVINASVSGETTSGALARLPKLLTTYRPNVVVIELGGNDALRGQPPQMIQSNLEKLIQHSQKAKSKVVVFGMKIPPNYGRRYSQAFENNYKVVSQTYQVKLLPFFLDGVAGHKSLMQNDQIHPNAKAQSILLNNAYPYIKGAL
Question: With B8 as the binder, how does the “secreted MCFAs, E. coli, 24 hrs (GC/MS)” value [1] read?
Answer: AbTE:T120R/A121R produced ˜45 mg/L of secreted MCFAs

B9: AbTE:G17R with C-terminal His6-tag (pET-28b-AbTE:G17R) (enzyme)
chain: MGKTILILGDSLSAGYRINPEQGWVALLQKRLDQQFPKQHKVINASVSGETTSGALARLPKLLTTYRPNVVVIELGGNDALRGQPPQMIQSNLEKLIQHSQKAKSKVVVFGMKIPPNYGTAYSQAFENNYKVVSQTYQVKLLPFFLDGVAGHKSLMQNDQIHPNAKAQSILLNNAYPYIKGALHHHHHH
notes: Purified protein; also called pET-AbTE:G17R
Question: Does B9 bind [2]?
Answer: binds

B10: AbTE:G17R/A165R with C-terminal His6-tag (pET-28b-AbTE:G17R/A165R) (enzyme)
chain: MGKTILILGDSLSAGYRINPEQGWVALLQKRLDQQFPKQHKVINASVSGETTSGALARLPKLLTTYRPNVVVIELGGNDALRGQPPQMIQSNLEKLIQHSQKAKSKVVVFGMKIPPNYGTAYSQAFENNYKVVSQTYQVKLLPFFLDGVAGHKSLMQNDQIHPNRKAQSILLNNAYPYIKGALHHHHHH
notes: Purified protein; also called pET-AbTE:G17R/A165R
Question: Does B10 bind [2]?
Answer: binds
